41 sequences from the nanobody polyreactivity screen of Harvey et al. (2022) can be followed below.

A short description of this data set: yeast display, Sf9 membrane polyspecificity reagent, FACS + sequencing; frameworks hold sequencing errors. The method, boiled down: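 Nanobodies came from a synthetic yeast display library in Saccharomyces cerevisiae BJ5465, induced with galactose for 36–48 hours and stained for 1 hour at 4 °C with 10% biotinylated, detergent-solubilized Sf9 membrane reagent. Cells were enriched on streptavidin microbeads and then FACS-sorted, with low and high (top ~1%) gates set on anti-HA fluorescence for expression and streptavidin fluorescence for reagent binding. Each polyreactivity label reflects the gate a clone came from. Genes were amplified by colony PCR, sequenced by MiSeq 2 × 250 and filtered by CDR length.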
Take “QVQLVESGGGLVQAGGSLRLSCAASGRIFRRYAMGWYRQAPGKERELVASISLSGGSTYYADSVKGRFTISRDNAKNTVYLQMNSLKPEDTAVYYCAAVIRAYATRATYNSWGQGTQVTVSS”: the “polyreactivity (PSR sort gate)” value is recorded as “high polyreactivity”.
The same measure for “QVQLVESGGGLVQAGGSLRLSCAASGRIFRRYAMGWYRQAPGKERELVASITWGGSSTSYADSVKGRFTISRDNAKNTVYLQMNSLKPEDTAVYYCNADFPTAIPYGYDYWGQGTQVTVSS”: “low polyreactivity”; for “QVQLVESGGGLVQAGGSLRLSCAASGRIFRRYAMGWYRQAPGKERELVSAITSGSSTYYADSVKGRFTISRDNPKNTVNLQMISVKPEYSAVYYCAALGYTYKYYSYYWGHGTQVTVSS”: “high polyreactivity”; for “QVQLVESGGGLVQAGGSLRLSCAASGRIFRRYVMGWYRQAPGKERELVARIRIRDSNTYYADSVKGRCTISRDNAKNTVYLQMNSLKPEDTAVYYCAVVANYVYSKYDYWGQGTQVTVSS”: “low polyreactivity”.
The value for “QVQLVESGGGLVQAGGSLRLSCAASGRIFRRYVMGWYRQAPGKERELVARIRIRDSNTYYADSVKGRFTISRDNAKNTVYLQMNSLKPEDTAVYYCAVVANYVYSKYDYWGQGTQVTVSS” was “low polyreactivity”.
As to “QVQLVESGGGLVQAGGSLRLSCAASGRIFRSNAMGWYRQAPGKERELVAVINSDDSTYYADSVKGRFTISRDNAKNTVYLQMNCLKPEDTAVYYCAAEPQYTRHMDSWGQGTQVTVSS”, the “polyreactivity (PSR sort gate)” value is recorded as “low polyreactivity”.
The same measure for “QVQLVESGGGLVQAGGSLRLSCAASGRIFRSNAMGWYRQAPGKERELVAVINSDDSTYYADSVKGRFTISRDNAKNTVYLQMNSLKPEDTAVYYCAAEPQYTRHMDSLGQGTQVTVSS”: “low polyreactivity”.
Regarding “QVQLVESGGGLVQAGGSLRLSCAASGRIFRSYALGWYRQAPGKERELAAAISYGGGSTYYADSVKGRFTISRDNAKNTVYLQMNSLKPEDTAVYYCAARGYSRPMDYWGQGTQVTVSS”, the “polyreactivity (PSR sort gate)” value is “high polyreactivity”.
As for “QVQLVESGGGLVQAGGSLRLSCAASGRIFRSYAMGWYRQAPGKERELVAAITGSTGSTSYADSVKGRFTISRDNAKNTVYLQMNSLKPEDTAGYYCNAEYSSGYGQSHTYFYEYDYWGHGTQVTVSS”, the “polyreactivity (PSR sort gate)” value is on record as “low polyreactivity”.
For the sequence “QVQLVESGGGLVQAGGSLRLSCAASGRIFRVYAMGWYRQAPGKERELVAAISSGGSTNYADSVKGRFTISRDNAKNTVYLQMNSLKPEDTAVYYCAATVRGVGYRYYYWGQGTQVTVSS”, the “polyreactivity (PSR sort gate)” value was “high polyreactivity”.
The value for “QVQLVESGGGLVQAGGSLRLSCAASGRIFRVYAMGWYRQAPGKERELVAAISSRGGRTYYADSVKGRFTISRDNAKNTVYLQMNSLKPEDTAVYYCAADGRSCSRTTSRYDYWGQGTQVTVSS” was “high polyreactivity”.
“QVQLVESGGGLVQAGGSLRLSCAASGRIFRYNAMGWYRQAPGKERELVAAISGTGDRTYYADSVKGRFTISRDNAKNTVYLQMNSLKPEDTAVYYCAARGLFFRNRYGYWGQGTQVTVSS”: the “polyreactivity (PSR sort gate)” value is recorded as “high polyreactivity”.
The value for “QVQLVESGGGLVQAGGSLRLSCAASGRIFRYNAMGWYRQAPGKERELVAAISRGDGSTYYADSVKGRFTISRDNAKNTVYLQMNILKPEDTAVYYCAAAWSFIYFQHPAFKYDYWGQGTQVTVSS” was “low polyreactivity”; that for “QVQLVESGGGLVQAGGSLRLSCAASGRIFRYNAMGWYRQAPGKERELVAAISWSGGSTYADSVKGRFTISRDNAKNTVYLQMNSLKPEDTAVYYCAADSSDLYVWGYDHWGQGTQVTVSS” was “low polyreactivity”.
The same measure for “QVQLVESGGGLVQAGGSLRLSCAASGRIFRYNAMGWYRQAPGKERELVAAISWTVGRTYYADSVKGRFTISRDNAKNTVYLQMNSLKPEDTAVYYCATDVGYYRKYEYYYWGQGTQVTVSS”: “high polyreactivity”; for “QVQLVESGGGLVQAGGSLRLSCAASGRIFRYNAMGWYRQAPGKERELVAAITNSCSTNYADSVKGRFTISRDNAKNTVYLQMNSMKQEDTAVYYCAARARFYGGRSYDYWGQGTQVTVSS”: “high polyreactivity”.
Turning to “QVQLVESGGGLVQAGGSLRLSCAASGRIFRYNAMGWYRQAPGKERELVAAITSGTGTNYADSVKGRFTISRDNAKNTVYLQMNSLKPEDTAVYYCNKDRKSYRYDYWGQGTQVTVSS”, the “polyreactivity (PSR sort gate)” value is recorded as “low polyreactivity”.
The value for “QVQLVESGGGLVQAGGSLRLSCAASGRIFRYNGMGWYRQAPGKERELVAVITPRSGTTSYADSVKGRFTISRDNAKNTVYLQMNSLKPEDTAVYYCAADSDWYPSPYDYWGQGTQVTVSS” was “high polyreactivity”; that for “QVQLVESGGGLVQAGGSLRLSCAASGRIFRYNIMGWYRPAPGKERELVAAIRQIGGSTYYADSVKGRFTISRDNAKNTVYLQMNSLKPEDTAVYYCAADSTVEATPFFVEYDYWGQGTQVTVSS” was “low polyreactivity”; that for “QVQLVESGGGLVQAGGSLRLSCAASGRIFRYYAIGWYRQAPGKERELVAVITSSGGSTYYADSVKGRFTISRDNAKNTVYLQMNSLKPEDTAVYYCAKDHRSYWGQGTQVTVSS” was “high polyreactivity”.
The same measure for “QVQLVESGGGLVQAGGSLRLSCAASGRIFRYYAKGWYRQAPGKERELVAAIRSASSTYYADSVKGRFTISRDNAKNTVYLQMNSLKPEDTAVYDCAAGLYGVYNRRYYYWGQGTQVTVSS”: “high polyreactivity”.
For “QVQLVESGGGLVQAGGSLRLSCAASGRIFRYYAMGWYRKAPGKERELVASISQRGGSTYYADSVKGRFTISRDNAKNTVYLQMNSLKPEDTAVYYCAARRSTVFILDYDWGQGTQVTVSS”, the “polyreactivity (PSR sort gate)” value is “high polyreactivity”.
The value for “QVQLVESGGGLVQAGGSLRLSCAASGRIFRYYAMGWYRPAPGKERELVAAITWRGDSTYYADSVKGRFTISRDNAKNTVYLQMNSLKPEDTAVYYCNKRWTDKYDSWGQGTQVTVSS” was “high polyreactivity”; that for “QVQLVESGGGLVQAGGSLRLSCAASGRIFRYYAMGWYRQAPGKEMELVAAITRGGSTNYADSVKGRFTISRDNAKNTGYLQMNSLKPEDTAVYYCATRQSWYPRWMDYWGQCTQVTVSS” was “high polyreactivity”; that for “QVQLVESGGGLVQAGGSLRLSCAASGRIFRYYAMGWYRQAPGKEREFVAAINSSGVNTYYADSVKGRFTISRDNAKNTVYLQMNSLKPEDTAVYYCAADWYQWGGRYYAPRYYYWGQGTQVTVSS” was “high polyreactivity”.
The same measure for “QVQLVESGGGLVQAGGSLRLSCAASGRIFRYYAMGWYRQAPGKERELVAAINWGGGSTYYADSVKGRFTISRDNAKNTVYLQMNSLKPEDTAVYYCNRDRNSFPHYFSHYGYWGQGTQVTVSS”: “high polyreactivity”.
The same measure for “QVQLVESGGGLVQAGGSLRLSCAASGRIFRYYAMGWYRQAPGKERELVAAISDSSGSTYYADSVKGRFTISRDNAKNSVYLQMNCLKPEDTAVYYCRYYFGSGYYYWGEGTQVTVSS”: “high polyreactivity”; for “QVQLVESGGGLVQAGGSLRLSCAASGRIFRYYAMGWYRQAPGKERELVAAISKSGGSTYYADSVKGRFTISRDNAKNTVYFQMNSLKPEDTGVYYCNARSRLGGLYEYWGQGTQVTVSS”: “high polyreactivity”.
For “QVQLVESGGGLVQAGGSLRLSCAASGRIFRYYAMGWYRQAPGKERELVAAISWSGTSTYYADSVKGRFTISRDNAKNTVYLQMNSLKPEDTAVYYCAKVGYQYATYRSDYWGQGTQVTVSS”, the “polyreactivity (PSR sort gate)” value is “high polyreactivity”.
The value for “QVQLVESGGGLVQAGGSLRLSCAASGRIFRYYAMGWYRQAPGKERELVAAISYSGGRTYYADSVKGRFTISRDNAKNTVYLQMNSLKPEDTAVYYCARFWHSQSSYVPFDSWGQGTQVTVSS” was “high polyreactivity”; that for “QVQLVESGGGLVQAGGSLRLSCAASGRIFRYYAMGWYRQAPGKERELVAAISYSTGGTYYADSVKGRFTISRDNAKNTVYLQMNSLKPEDTAVYYCATSAYQIYPRYGYWGQGTQVTVSS” was “high polyreactivity”.
“QVQLVESGGGLVQAGGSLRLSCAASGRIFRYYAMGWYRQAPGKERELVAAITQRGGSTYADSVKGRFTISRDNAKNTVYLQMNSLKPEDTAVYYCAYRGSFLYDYWGQGTQVTVSS”: the “polyreactivity (PSR sort gate)” value is on record as “low polyreactivity”.
“QVQLVESGGGLVQAGGSLRLSCAASGRIFRYYAMGWYRQAPGKERELVAAITWRGDSTYYADSVKGRFTISRDNAKNTVYLQMNSLKPEDTAVYYCNKRWTDKYDSWGQGTQVTVSS”: the “polyreactivity (PSR sort gate)” value is listed as “high polyreactivity”.
For the sequence “QVQLVESGGGLVQAGGSLRLSCAASGRIFRYYAMGWYRQAPGKERELVAGITIGGSTNYADSVKGRFTISRDNAKNTVYLLMISLKPEDTAVYYCAAVQHDENEYWGQGTQVTVSS”, the “polyreactivity (PSR sort gate)” value was “low polyreactivity”.
With “QVQLVESGGGLVQAGGSLRLSCAASGRIFRYYAMGWYRQAPGKERELVATIRSGGSTNYADSVKGRFTISRDNAKNTVYLQMNSLKPEDTEVYYCAATGGILSTYDYWGLGTQVTVSS”, the “polyreactivity (PSR sort gate)” value is given as “high polyreactivity”.
The same measure for “QVQLVESGGGLVQAGGSLRLSCAASGRIFRYYAMGWYRQAPGKERELVGSITYSGGRTNYADSVKGRFTISRDNAKNTVYLQMNSLKPEDTAVYYCNAAYVYYYPHYRYAPTAVDYDYWGQGTQVTVSS”: “low polyreactivity”; for “QVQLVESGGGLVQAGGSLRLSCAASGRIFRYYAMVWYRQAPRKERELVAGITRGGTTNYADSVKGRFTISRDNAKNTVYLQMNSLKPEDTAVYYCAADTRRGIIGYDYWGQGTQVTVSS”: “high polyreactivity”; for “QVQLVESGGGLVQAGGSLRLSCAASGRIFRYYVMGWYRQAPGKERELVAAISRSGGTTYYADSVKGRFTISRDTATNTVYLQMNSLKREDTAVFYCAAVYGRDPGDYWGQGTQVTVSS”: “high polyreactivity”.
The value for “QVQLVESGGGLVQAGGSLRLSCAASGRIFSAYAMGWYRQAPGKERELVAAISRSGGRTYYADSVKGRFTISRDNAKNTVYLQMNSLKPEDTAVYYCAAARFAIVRGDYWGQGTQVTVSS” was “high polyreactivity”; that for “QVQLVESGGGLVQAGGSLRLSCAASGRIFSAYAMGWYRQAPGKERELVAAISSGGRTYYADSVKGRFTISRDNAKNTVYLEMYRLKPEDTAVYFCNAVALWGRDYGYWGQGTQVSVSS” was “high polyreactivity”.
The same measure for “QVQLVESGGGLVQAGGSLRLSCAASGRIFSAYAMGWYRQAPGKERELVAVISSGDSTNYADSVKGRFTISRDNAKNTVYLQMNSLKPEDTAVYYCNARGKHRYGFRSHVGNEYWGQVTQVTVSS”: “low polyreactivity”.
